The target in assay [1] is mouse Src SH3 domain, residues 85-142 (mouse) (UniProt P05480). Briefly: paramagnetic relaxation enhancement NMR.
The target is the same in assay [2]. The experiment in a line: NMR titration.
Assay [3] has as its target mouse Src SH3 domain, residues 85-142 (mouse, UniProt P05480-2 85-142). The experiment in a line: NMR titration.

As usually defined, the Kd is the equilibrium constant for the complex coming apart. Read a low Kd as higher affinity. In the case of “peptide P3Tm (RALP-TOAC-IPKL, TOAC within the core binding motif of the FAK peptide)”, the fraction of protein bound in assay [1] came out at 44%. Besides, the Kd in assay [2] came to 900 µM.

B1: peptide P3 (unlabelled control peptide derived from focal adhesion kinase, RALPSIPKL) (peptide)
peptide: Ac-RALPSIPKL-NH2
For the molecule B1, the Kd in assay [3] was 56 ± 11 µM.

Values taken from paper PMC2480485 (Journal of Biomolecular Nmr, 2008).
